Assay [1] has as its target T1, human CD39 expressed at the cell surface (human, UniProt P49961 1-510).
T1 construct: On CHO transfectants, Hek-293T transfectants, Ramos and Mino tumor cells; also called huCD39; CHO-huCD39
T1 sequence: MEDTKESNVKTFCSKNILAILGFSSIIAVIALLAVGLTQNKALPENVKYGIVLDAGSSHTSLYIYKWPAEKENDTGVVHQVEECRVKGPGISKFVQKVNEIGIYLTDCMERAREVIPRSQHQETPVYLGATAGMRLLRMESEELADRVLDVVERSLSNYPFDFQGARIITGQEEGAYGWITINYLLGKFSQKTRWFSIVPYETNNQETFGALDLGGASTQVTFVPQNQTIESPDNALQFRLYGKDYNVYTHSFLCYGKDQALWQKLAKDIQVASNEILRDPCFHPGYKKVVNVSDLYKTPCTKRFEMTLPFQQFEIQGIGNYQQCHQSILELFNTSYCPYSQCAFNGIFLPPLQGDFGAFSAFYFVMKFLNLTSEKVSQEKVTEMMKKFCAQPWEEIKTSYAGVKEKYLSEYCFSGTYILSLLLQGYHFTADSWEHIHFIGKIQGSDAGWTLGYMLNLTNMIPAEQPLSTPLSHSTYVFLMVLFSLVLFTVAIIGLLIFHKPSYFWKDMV
As to the kind of experiment: flow cytometry titration on Ramos lymphoma cells (Mean of Fluorescence), panel L1.

The target in assay [2] is T1, human CD39 expressed at the cell surface. As to the kind of experiment: flow cytometry titration on Ramos lymphoma cells (Mean of Fluorescence), panel L0. A general note: A flow cytometer gives signals particle by particle.
The target is the same in assay [3]. As to the kind of experiment: flow cytometry titration on Ramos lymphoma cells (Mean of Fluorescence), panel L1*.

B1: mAb8 H2L1 (antibody, human IgG1, V domains shown)
VH: QVQLVQSGAEVKKPGASVKVSCKASGYTFTDYNMHWVRQAPGQRLEWMGYIVPLNGGSTFNQKFKGRATITVDTSASTAYMELSSLRSEDTAVYYCARGGTRFAYWGQGTLVTVSS
VL: DIVMTQSPDSLAVSLGERATINCRASESVDNFGVSFMYWFQQKPGQPPKLLIYGASNQGSGVPDRFSGSGSGTDFTLTISSLQAEDVAVYYCQQTKEVPYTFGGGTKVEIK
For the molecule B1, the binding result in assay [1] is recorded as “binds”.

B2: mAb5 H1L1 (antibody, human IgG1, V domains shown)
VH: QVQLVQSGAEVKKPGASVKVSCKASGYTFTDYNMHWVRQAPGQRLEWMGYIVPLNGGSTFNQKFKGRVTITVDTSASTAYMELSSLRSEDTAVYYCARGGTRFAYWGQGTLVTVS
VL: DIVMTQSPDSLAVSLGERATINCRASESVDNFGVSFMYWFQQKPGQPPKLLIYGASNQGSGVPDRFSGSGSGTDFTLTISSLQAEDVAVYYCQQTKEVPYTFGGGTKVEIK
On to B2, for which the binding result in assay [1] is “binds”.

B3: mAb1 H0L0 (antibody, human IgG1, V domains shown)
VH: QVQLVQSGAEVKKPGASVKVSCKASGYTFTDYNMHWVRQAPGQRLEWMGYIVPLNGGSTFNQKFKGRVTITRDTSASTAYMELSSLRSEDTAVYYCARGGTRFAYWGQGTLVTVSS
VL: DIVMTQSPDSLAVSLGERATINCRASESVDNFGVSFMYWYQQKPGQPPKLLIYGASNQGSGVPDRFSGSGSGTDFTLTISSLQAEDVAVYYCQQTKEVPYTFGGGTKVEIK
As for B3, the binding result in assay [2] was “binds”.

B4: mAb3 H0L1* (antibody, human IgG1, V domains shown)
VH: QVQLVQSGAEVKKPGASVKVSCKASGYTFTDYNMHWVRQAPGQRLEWMGYIVPLNGGSTFNQKFKGRVTITRDTSASTAYMELSSLRSEDTAVYYCARGGTRFAYWGQGTLVTVSS
VL: DIVMTQSPDSLAVSLGERATINCKASESVDNFGVSFMYWFQQKPGQPPKLLIYGASNQGSGVPDRFSGSGSGTDFTLTISSLQAEDVAVYYCQQTKEVPYTFGGGTKVEIK
As to B4, the binding result in assay [3] is “binds”.

B5: mAb15 H3L1* (antibody, human IgG1, V domains shown)
VH: QVQLVQSGAEVKKPGASVKVSCKASGYTFTDYNMHWVRQAPGQRLEWIGYIVPLNGGSTFNQKFKGRATITVDTSASTAYMELSSLRSEDTAVYYCARGGTRFAYWGQGTLVTVSS
VL: DIVMTQSPDSLAVSLGERATINCKASESVDNFGVSFMYWFQQKPGQPPKLLIYGASNQGSGVPDRFSGSGSGTDFTLTISSLQAEDVAVYYCQQTKEVPYTFGGGTKVEIK
With B5, the binding result in assay [3] is reported as “binds”.

B6: mAb18 H3*L1* (antibody, human IgG1, V domains shown)
VH: QVQLVQSGAEVKKPGASVKVSCKASGYTFTDYNMHWVRQAPGQRLEWIGYIVPLNGGSTFSQKFQGRATITVDTSASTAYMELSSLRSEDTAVYYCARGGTRFAYWGQGTLVTVSS
VL: DIVMTQSPDSLAVSLGERATINCKASESVDNFGVSFMYWFQQKPGQPPKLLIYGASNQGSGVPDRFSGSGSGTDFTLTISSLQAEDVAVYYCQQTKEVPYTFGGGTKVEIK
Regarding B6, in assay [3], the binding result is “binds”.

B7: mAb24 H4*L1* (antibody, human IgG1, V domains shown)
VH: QVQLVQSGAEVKKPGASVKVSCKASGYTFTDYNMHWVRQAPGQRLEWIGYIVPLNGGSTFSQKFQGRATITVDTSARTAYMELSSLRSEDTAVYYCARGGTRFAYWGQGTLVTVSS
VL: DIVMTQSPDSLAVSLGERATINCKASESVDNFGVSFMYWFQQKPGQPPKLLIYGASNQGSGVPDRFSGSGSGTDFTLTISSLQAEDVAVYYCQQTKEVPYTFGGGTKVEIK
As for B7, the binding result in assay [3] is recorded as “binds”.

B8: mAb13 H3L0 (antibody, human IgG1, V domains shown)
VH: QVQLVQSGAEVKKPGASVKVSCKASGYTFTDYNMHWVRQAPGQRLEWIGYIVPLNGGSTFNQKFKGRATITVDTSASTAYMELSSLRSEDTAVYYCARGGTRFAYWGQGTLVTVSS
VL: DIVMTQSPDSLAVSLGERATINCRASESVDNFGVSFMYWYQQKPGQPPKLLIYGASNQGSGVPDRFSGSGSGTDFTLTISSLQAEDVAVYYCQQTKEVPYTFGGGTKVEIK
B8: the binding result in assay [2] is reported as “binds”.

B9: mAb9 H2L1* (antibody, human IgG1, V domains shown)
VH: QVQLVQSGAEVKKPGASVKVSCKASGYTFTDYNMHWVRQAPGQRLEWMGYIVPLNGGSTFNQKFKGRATITVDTSASTAYMELSSLRSEDTAVYYCARGGTRFAYWGQGTLVTVSS
VL: DIVMTQSPDSLAVSLGERATINCKASESVDNFGVSFMYWFQQKPGQPPKLLIYGASNQGSGVPDRFSGSGSGTDFTLTISSLQAEDVAVYYCQQTKEVPYTFGGGTKVEIK
B9: the binding result in assay [3] is listed as “binds”.

B10: mAb10 H2*L0 (antibody, human IgG1, V domains shown)
VH: QVQLVQSGAEVKKPGASVKVSCKASGYTFTDYNMHWVRQAPGQRLEWMGYIVPLNGGSTFSQKFKGRATITVDTSASTAYMELSSLRSEDTAVYYCARGGTRFAYWGQGTLVTVSS
VL: DIVMTQSPDSLAVSLGERATINCRASESVDNFGVSFMYWYQQKPGQPPKLLIYGASNQGSGVPDRFSGSGSGTDFTLTISSLQAEDVAVYYCQQTKEVPYTFGGGTKVEIK
In the case of B10, in assay [2], the binding result is “binds”.

B11: mAb7 H2L0 (antibody, human IgG1, V domains shown)
VH: QVQLVQSGAEVKKPGASVKVSCKASGYTFTDYNMHWVRQAPGQRLEWMGYIVPLNGGSTFNQKFKGRATITVDTSASTAYMELSSLRSEDTAVYYCARGGTRFAYWGQGTLVTVSS
VL: DIVMTQSPDSLAVSLGERATINCRASESVDNFGVSFMYWYQQKPGQPPKLLIYGASNQGSGVPDRFSGSGSGTDFTLTISSLQAEDVAVYYCQQTKEVPYTFGGGTKVEIK
As for B11, in assay [2], the binding result is “binds”.

B12: mAb16 H3*L0 (antibody, human IgG1, V domains shown)
VH: QVQLVQSGAEVKKPGASVKVSCKASGYTFTDYNMHWVRQAPGQRLEWIGYIVPLNGGSTFSQKFQGRATITVDTSASTAYMELSSLRSEDTAVYYCARGGTRFAYWGQGTLVTVSS
VL: DIVMTQSPDSLAVSLGERATINCRASESVDNFGVSFMYWYQQKPGQPPKLLIYGASNQGSGVPDRFSGSGSGTDFTLTISSLQAEDVAVYYCQQTKEVPYTFGGGTKVEIK
For the molecule B12, the binding result in assay [2] was “binds”.

B13: mAb6 H1L1* (antibody, human IgG1, V domains shown)
VH: QVQLVQSGAEVKKPGASVKVSCKASGYTFTDYNMHWVRQAPGQRLEWMGYIVPLNGGSTFNQKFKGRVTITVDTSASTAYMELSSLRSEDTAVYYCARGGTRFAYWGQGTLVTVS
VL: DIVMTQSPDSLAVSLGERATINCKASESVDNFGVSFMYWFQQKPGQPPKLLIYGASNQGSGVPDRFSGSGSGTDFTLTISSLQAEDVAVYYCQQTKEVPYTFGGGTKVEIK
Take B13: the binding result in assay [3] is on record as “binds”.

B14: mAb22 H4*L0 (antibody, human IgG1, V domains shown)
VH: QVQLVQSGAEVKKPGASVKVSCKASGYTFTDYNMHWVRQAPGQRLEWIGYIVPLNGGSTFSQKFQGRATITVDTSARTAYMELSSLRSEDTAVYYCARGGTRFAYWGQGTLVTVSS
VL: DIVMTQSPDSLAVSLGERATINCRASESVDNFGVSFMYWYQQKPGQPPKLLIYGASNQGSGVPDRFSGSGSGTDFTLTISSLQAEDVAVYYCQQTKEVPYTFGGGTKVEIK
In the case of B14, the binding result in assay [2] is on record as “binds”.

B15: mAb4 H1L0 (antibody, human IgG1, V domains shown)
VH: QVQLVQSGAEVKKPGASVKVSCKASGYTFTDYNMHWVRQAPGQRLEWMGYIVPLNGGSTFNQKFKGRVTITVDTSASTAYMELSSLRSEDTAVYYCARGGTRFAYWGQGTLVTVS
VL: DIVMTQSPDSLAVSLGERATINCRASESVDNFGVSFMYWYQQKPGQPPKLLIYGASNQGSGVPDRFSGSGSGTDFTLTISSLQAEDVAVYYCQQTKEVPYTFGGGTKVEIK
Regarding B15, the binding result in assay [2] is given as “binds”.

B16: mAb14 H3L1 (antibody, human IgG1, V domains shown)
VH: QVQLVQSGAEVKKPGASVKVSCKASGYTFTDYNMHWVRQAPGQRLEWIGYIVPLNGGSTFNQKFKGRATITVDTSASTAYMELSSLRSEDTAVYYCARGGTRFAYWGQGTLVTVSS
VL: DIVMTQSPDSLAVSLGERATINCRASESVDNFGVSFMYWFQQKPGQPPKLLIYGASNQGSGVPDRFSGSGSGTDFTLTISSLQAEDVAVYYCQQTKEVPYTFGGGTKVEIK
Consider B16, for which the binding result in assay [1] was “binds”.

B17: mAb12 H2*L1* (antibody, human IgG1, V domains shown)
VH: QVQLVQSGAEVKKPGASVKVSCKASGYTFTDYNMHWVRQAPGQRLEWMGYIVPLNGGSTFSQKFKGRATITVDTSASTAYMELSSLRSEDTAVYYCARGGTRFAYWGQGTLVTVSS
VL: DIVMTQSPDSLAVSLGERATINCKASESVDNFGVSFMYWFQQKPGQPPKLLIYGASNQGSGVPDRFSGSGSGTDFTLTISSLQAEDVAVYYCQQTKEVPYTFGGGTKVEIK
For B17, the binding result in assay [3] is given as “binds”.

B18: mAb21 H4L1* (antibody, human IgG1, kappa, V domains shown)
VH: QVQLVQSGAEVKKPGASVKVSCKASGYTFTDYNMHWVRQAPGQRLEWIGYIVPLNGGSTFNQKFKGRATITVDTSARTAYMELSSLRSEDTAVYYCARGGTRFAYWGQGTLVTVSS
VL: DIVMTQSPDSLAVSLGERATINCKASESVDNFGVSFMYWFQQKPGQPPKLLIYGASNQGSGVPDRFSGSGSGTDFTLTISSLQAEDVAVYYCQQTKEVPYTFGGGTKVEIKR
For B18, the binding result in assay [3] is recorded as “binds”.

B19: mAb19 H4L0 (antibody, human IgG1, V domains shown)
VH: QVQLVQSGAEVKKPGASVKVSCKASGYTFTDYNMHWVRQAPGQRLEWIGYIVPLNGGSTFNQKFKGRATITVDTSARTAYMELSSLRSEDTAVYYCARGGTRFAYWGQGTLVTVSS
VL: DIVMTQSPDSLAVSLGERATINCRASESVDNFGVSFMYWYQQKPGQPPKLLIYGASNQGSGVPDRFSGSGSGTDFTLTISSLQAEDVAVYYCQQTKEVPYTFGGGTKVEIK
For B19, the binding result in assay [2] is recorded as “binds”.
